Measured values reported in patent publication US20210388096A1.

Target: human Fn14 on cells (NFkB/HEK293 reporter cells, A375 cells) (human) (UniProt Q9NP84)
Test: cell-based or functional assay

Sequence of human Fn14 on cells (NFkB/HEK293 reporter cells, A375 cells) (human) (Q9NP84 28-129): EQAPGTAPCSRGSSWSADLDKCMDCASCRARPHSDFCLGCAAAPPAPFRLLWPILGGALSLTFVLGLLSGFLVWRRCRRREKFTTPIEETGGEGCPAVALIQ

B1: mouse anti-human Fn14 antibody CRCBT-06-002 (antibody, from another filing, V domains shown)
VH: EVKLQQSGGGLVQPGGSMKLSCVASGFTFSYYWMNWVRQSPEQGLEWIAEIRLQSNDYPTHYAESVKGRFTISRDDSKNSVYLQMNNLRPEDTGIYYCACRYADYFDHWGQGTTLTVSS
VL: DTVLTQSPASLVVSLGQRATISCRASQSVSTSDYSYIHWYQQKPGQPPKFLIKYASNRDSGVPARFSGSGSGTDFTLNIHPVEEDDTAIYYCQHSWEIPPTFGAGTKLELQR
An IC50 (ng/mL), inhibition of Tweak-induced NFkB activation (luciferase reporter, NFkB/HEK293 cells), geometric mean of three trials of 115 ng/mL was found for B1 in this work.
